# According to PMC10457294 (2023):
# T1: CPXV M2 (cowpox virus M2), recombinant, His-tagged (cowpox virus, UniProt Q8QN22 18-220)
# T1 chain: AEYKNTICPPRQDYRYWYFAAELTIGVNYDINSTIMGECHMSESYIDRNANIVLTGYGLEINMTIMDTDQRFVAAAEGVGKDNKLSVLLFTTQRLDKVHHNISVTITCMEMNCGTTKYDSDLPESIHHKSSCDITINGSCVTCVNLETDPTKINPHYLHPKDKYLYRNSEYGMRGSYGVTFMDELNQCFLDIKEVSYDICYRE
# How the values were obtained:
# Test in all cases: BLI
# [1] = molecular target: T1, CPXV M2 (cowpox virus M2), recombinant, …
# [2] = molecular target: T2, MPXV M2 (monkeypox virus M2 protein), His-tagged, wild type (monkeypox virus (Clade I), UniProt Q8V554 18-220)
# [3] = molecular target: T1, CPXV M2 (cowpox virus M2), recombinant, …
# [4] = molecular target: T2, MPXV M2 (monkeypox virus M2 protein), …; remark: listed apart in the source
# [5] = molecular target: MPXV Bio-M2 (site-specifically biotinylated MPXV Avi-M2) (monkeypox virus (Clade I), UniProt Q8V554 18-220)
binder,measurement,setting,value
mouse B7.1 ectodomain fused to human Fc (Fc fusion) VDEQLSKSVKDKVLLPCRYNSPHEDESEDRIYWQKHDKVVLSVIAGKLKVWPEYKNRTLYDNTTYSLIILGLVLSDRGTYSCVVQKKERGTYEVKHLALVKLSIKADFSTPNITESGNPSADTKRITCFASGGFPKPRFSWLENGRELPGINTTISQDPESELYTISSQLDFNTTRNHTIKCLIKYGDAHVSEDFTWEKPPEDPPDSK,Kd,[1],1.48 nM
same,Kd,[2],0.243 nM
same,koff,[3],0.000109 s⁻¹
same,koff,[4],2.92e-05 s⁻¹
"human B7.2 ectodomain, His-tagged (domain or fragment) LKIQAYFNETADLPCQFANSQNQSLSELVVFWQDQENLVLNEVYLGKEKFDSVHSKYMGRTSFDSDSWTLRLHNLQIKDKGLYQCIIHHKKPTGMIRIHQMNSELSVLANFSQPEIVPISNITENVYINLTCSSIHGYPEPKKMSVLLRTKNSTIEYDGVMQKSQDNVTELYDVSISLSVSFPDVTSNMTIFCILETDKTRLLSSPFSIELED",koff,[5],0.0334 s⁻¹
human B7.2 ectodomain fused to human Fc (Fc fusion) LKIQAYFNETADLPCQFANSQNQSLSELVVFWQDQENLVLNEVYLGKEKFDSVHSKYMGRTSFDSDSWTLRLHNLQIKDKGLYQCIIHHKKPTGMIRIHQMNSELSVLANFSQPEIVPISNITENVYINLTCSSIHGYPEPKKMSVLLRTKNSTIEYDGVMQKSQDNVTELYDVSISLSVSFPDVTSNMTIFCILETDKTRLLSSPFSIELED,koff,[4],9.75e-06 s⁻¹
human B7.1 ectodomain fused to human Fc (Fc fusion) VIHVTKEVKEVATLSCGHNVSVEELAQTRIYWQKEKKMVLTMMSGDMNIWPEYKNRTIFDITNNLSIVILALRPSDEGTYECVVLKYEKDAFKREHLAEVTLSVKADFPTPSISDFEIPTSNIRRIICSTSGGFPEPHLSWLENGEELNAINTTVSQDPETELYAVSSKLDFNMTTNHSFMCLIKYGHLRVNQTFNWNTT,koff,[4],2.91e-05 s⁻¹
"human B7.1 ectodomain, His-tagged (domain or fragment) VIHVTKEVKEVATLSCGHNVSVEELAQTRIYWQKEKKMVLTMMSGDMNIWPEYKNRTIFDITNNLSIVILALRPSDEGTYECVVLKYEKDAFKREHLAEVTLSVKADFPTPSISDFEIPTSNIRRIICSTSGGFPEPHLSWLENGEELNAINTTVSQDPETELYAVSSKLDFNMTTNHSFMCLIKYGHLRVNQTFNWNTT",koff,[5],0.00676 s⁻¹
mouse B7.2 ectodomain fused to human Fc (Fc fusion) VSVETQAYFNGTAYLPCPFTKAQNISLSELVVFWQDQQKLVLYEHYLGTEKLDSVNAKYLGRTSFDRNNWTLRLHNVQIKDMGSYDCFIQKKPPTGSIILQQTLTELSVIANFSEPEIKLAQNVTGNSGINLTCTSKQGHPKPKKMYFLITNSTNEYGDNMQISQDNVTELFSISNSLSLSFPDGVWHMTVVCVLETESMKISSKPLNFTQEFPSPQTYWKE,Kd,[1],8 nM
same,Kd,[2],13600 nM
same,koff,[3],0.000363 s⁻¹
same,koff,[4],0.689 s⁻¹
